B1: Protein canopy homolog 2 (Mus musculus), Q9QXT0 (parent)
chain: MKGWGWLALLLGVLLGTAWARRSQDLHCGACRALVDELEWEIARVDPKKTIQMGSFRINPDGSQSVVEVPYARSEAHLTELLEEVCDRMKEYGEQIDPSTHRKNYVRVVSRNGESSELDLQGIRIDSDISGTLKFACESIVEEYEDELIEFFSREADNVKDKLCSKRTDLCDHALHRSHDEL
partner: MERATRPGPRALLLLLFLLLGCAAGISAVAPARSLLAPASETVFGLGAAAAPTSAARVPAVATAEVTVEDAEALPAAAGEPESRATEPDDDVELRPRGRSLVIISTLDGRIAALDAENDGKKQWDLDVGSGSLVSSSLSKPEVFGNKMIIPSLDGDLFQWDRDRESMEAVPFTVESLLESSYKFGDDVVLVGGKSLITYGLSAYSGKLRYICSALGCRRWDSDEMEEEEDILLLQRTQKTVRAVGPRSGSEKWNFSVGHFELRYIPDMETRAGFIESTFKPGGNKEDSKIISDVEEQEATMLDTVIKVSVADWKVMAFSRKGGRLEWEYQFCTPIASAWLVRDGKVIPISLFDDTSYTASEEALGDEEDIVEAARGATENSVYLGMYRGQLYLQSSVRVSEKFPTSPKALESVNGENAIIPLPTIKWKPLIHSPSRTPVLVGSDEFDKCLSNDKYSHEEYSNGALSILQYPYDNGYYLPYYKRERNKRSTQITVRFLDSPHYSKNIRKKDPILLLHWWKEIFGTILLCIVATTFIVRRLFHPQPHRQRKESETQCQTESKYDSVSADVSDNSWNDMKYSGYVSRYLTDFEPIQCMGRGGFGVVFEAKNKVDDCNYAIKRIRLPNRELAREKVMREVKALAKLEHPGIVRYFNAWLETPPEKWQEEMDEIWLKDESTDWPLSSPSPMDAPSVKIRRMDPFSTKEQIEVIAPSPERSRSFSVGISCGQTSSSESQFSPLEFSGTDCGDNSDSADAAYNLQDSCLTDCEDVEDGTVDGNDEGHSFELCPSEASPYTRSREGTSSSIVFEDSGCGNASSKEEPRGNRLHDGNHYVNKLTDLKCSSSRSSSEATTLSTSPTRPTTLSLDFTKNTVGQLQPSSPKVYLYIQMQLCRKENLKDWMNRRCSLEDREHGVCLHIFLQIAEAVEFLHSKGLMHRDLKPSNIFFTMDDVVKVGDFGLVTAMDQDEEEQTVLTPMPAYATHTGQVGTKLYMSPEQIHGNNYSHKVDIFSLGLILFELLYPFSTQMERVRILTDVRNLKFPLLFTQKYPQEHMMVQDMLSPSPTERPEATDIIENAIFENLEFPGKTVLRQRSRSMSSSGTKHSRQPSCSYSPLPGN

Variants of: B1
Conditions: with Eif2ak3, Q9Z2B5

effect of a mutation on the interaction	Variant
increasing interaction	C28A;C31A;C86A

Variants of: B1
Conditions: with Eif2ak3, Q9Z2B5
Remark: another data set of the same source

effect of a mutation on the interaction	Variant
disrupting interaction	C28A;C31A;C86A;C137A;C164A;C171A

From IntAct's records for PubMed 28869608
